Values of other authors in PMC10605242.

How the values were obtained:
C4b (Homo sapiens) = C4b (Homo sapiens) (UniProt P0C0L4)
[1] = biological target: C4b dimer (A isoform) (Homo sapiens) (UniProt P0C0L4)
[2] = biological target: C4b dimer (B isoform) (Homo sapiens) (UniProt P0C0L5)

Kd (C4b (Homo sapiens)) [nM]	Kd [1] [nM]	Kd [2] [nM]	Substance
1200			CR1 SCR15-18 (from UniProt P17927)
	130	445	CR1 (from UniProt P17927)
